Experimental data: patent publication US20210246166A1 (Bayer, published 2021)
Bridge positions count the residues as written; N and C are the ends. Square brackets hold non-standard residues; d marks the D form. Ends that are not written are not given here. Oic = O=C(O)[C@@H]1C[C@@H]2CCCC[C@@H]2N1; NMeI = CC[C@H](C)[C@H](NC)C(=O)O; tBuAla = CC(C)(C)C[C@H](N)C(=O)O; Pen = CC(C)(S)[C@H](N)C(=O)O; NMeC = CN[C@@H](CS)C(=O)O; NMeA = CN[C@@H](C)C(=O)O; Aib = CC(C)(N)C(=O)O; Sar = CNCC(=O)O

T1: recombinant human MASP1 active protease (amino acids 297-699, C-terminal His Tag) (human, UniProt P48740 297-699)
T1 sequence: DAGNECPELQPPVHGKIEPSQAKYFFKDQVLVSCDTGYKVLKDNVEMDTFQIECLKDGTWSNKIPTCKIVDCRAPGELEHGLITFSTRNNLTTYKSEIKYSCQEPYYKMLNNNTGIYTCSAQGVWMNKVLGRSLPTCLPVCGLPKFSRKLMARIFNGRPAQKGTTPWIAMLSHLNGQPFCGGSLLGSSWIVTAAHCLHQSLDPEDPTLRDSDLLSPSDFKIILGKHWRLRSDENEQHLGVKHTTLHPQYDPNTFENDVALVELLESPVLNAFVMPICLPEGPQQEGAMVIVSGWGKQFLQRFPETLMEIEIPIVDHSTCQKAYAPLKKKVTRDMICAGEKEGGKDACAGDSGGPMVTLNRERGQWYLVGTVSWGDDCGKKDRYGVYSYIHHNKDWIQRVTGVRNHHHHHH

B1: AIC+SRSLP-(Oic)-I-(Pen)+IPQ-OH (peptide)
peptide: AICSRSLP[Oic]I[Pen]IPQ-OH
modifications: disulfide 3-11; N-terminus assumed
SMILES: CC[C@H](C)[C@H](NC(=O)[C@H](C)N)C(=O)N[C@H]1CSSC(C)(C)[C@@H](C(=O)N[C@H](C(=O)N2CCC[C@H]2C(=O)N[C@@H](CCC(N)=O)C(=O)O)[C@@H](C)CC)NC(=O)[C@H]([C@@H](C)CC)NC(=O)[C@@H]2C[C@@H]3CCCC[C@@H]3N2C(=O)[C@@H]2CCCN2C(=O)[C@H](CC(C)C)NC(=O)[C@H](CO)NC(=O)[C@H](CCCNC(=N)N)NC(=O)[C@H](CO)NC1=O
B2: ((N-Me)G)-IC+SRSLP-(Oic)-I-(Pen)+IP-(PEG4-CH2CO2H (15 atoms))-NH2 (peptide)
peptide: [Sar]ICSRSLP[Oic]I[Pen]IP[PEG4‑CH2CO2H (15 atoms)]-NH2
modifications: disulfide 3-11
B3: A-((N-Me)I)-C+SRS-((tBu)A)-P-(Oic)-I-((N-Me)C)+IPD-NH2 (peptide)
peptide: A[NMeI]CSRS[tBuAla]P[Oic]I[NMeC]IPD-NH2
modifications: disulfide 3-11; N-terminus assumed
SMILES: CC[C@H](C)[C@@H]1NC(=O)[C@@H]2C[C@@H]3CCCC[C@@H]3N2C(=O)[C@@H]2CCCN2C(=O)[C@H](CC(C)(C)C)NC(=O)[C@H](CO)NC(=O)[C@H](CCCNC(=N)N)NC(=O)[C@H](CO)NC(=O)[C@@H](NC(=O)[C@H]([C@@H](C)CC)N(C)C(=O)[C@H](C)N)CSSC[C@@H](C(=O)N[C@H](C(=O)N2CCC[C@H]2C(=O)N[C@@H](CC(=O)O)C(N)=O)[C@@H](C)CC)N(C)C1=O
B4: ((N-Me)A)-IC+SRSLP-(Oic)-I-(Pen)+IP-OH (peptide)
peptide: [NMeA]ICSRSLP[Oic]I[Pen]IP-OH
modifications: disulfide 3-11; N-terminus assumed
SMILES: CC[C@H](C)[C@H](NC(=O)[C@H](C)NC)C(=O)N[C@H]1CSSC(C)(C)[C@@H](C(=O)N[C@H](C(=O)N2CCC[C@H]2C(=O)O)[C@@H](C)CC)NC(=O)[C@H]([C@@H](C)CC)NC(=O)[C@@H]2C[C@@H]3CCCC[C@@H]3N2C(=O)[C@@H]2CCCN2C(=O)[C@H](CC(C)C)NC(=O)[C@H](CO)NC(=O)[C@H](CCCNC(=N)N)NC(=O)[C@H](CO)NC1=O
B5: (Aib)-IC+SRS-((tBu)A)-PPI-(Pen)+IPD-NH2 (peptide)
peptide: [Aib]ICSRS[tBuAla]PPI[Pen]IPD-NH2
modifications: disulfide 3-11; N-terminus assumed
SMILES: CC[C@H](C)[C@@H]1NC(=O)[C@@H]2CCCN2C(=O)[C@@H]2CCCN2C(=O)[C@H](CC(C)(C)C)NC(=O)[C@H](CO)NC(=O)[C@H](CCCNC(=N)N)NC(=O)[C@H](CO)NC(=O)[C@@H](NC(=O)[C@@H](NC(=O)C(C)(C)N)[C@@H](C)CC)CSSC(C)(C)[C@@H](C(=O)N[C@H](C(=O)N2CCC[C@H]2C(=O)N[C@@H](CC(=O)O)C(N)=O)[C@@H](C)CC)NC1=O
B6: HIC+SRS-((tBu)A)-PPI-(Pen)+IPD-NH2 (peptide)
peptide: HICSRS[tBuAla]PPI[Pen]IPD-NH2
modifications: disulfide 3-11; N-terminus assumed
SMILES: CC[C@H](C)[C@H](NC(=O)[C@@H](N)Cc1c[nH]cn1)C(=O)N[C@H]1CSSC(C)(C)[C@@H](C(=O)N[C@H](C(=O)N2CCC[C@H]2C(=O)N[C@@H](CC(=O)O)C(N)=O)[C@@H](C)CC)NC(=O)[C@H]([C@@H](C)CC)NC(=O)[C@@H]2CCCN2C(=O)[C@@H]2CCCN2C(=O)[C@H](CC(C)(C)C)NC(=O)[C@H](CO)NC(=O)[C@H](CCCNC(=N)N)NC(=O)[C@H](CO)NC1=O
B7: AIC+SRSLP-(Oic)-I-(Pen)+IPE-NH2 (peptide)
peptide: AICSRSLP[Oic]I[Pen]IPE-NH2
modifications: disulfide 3-11; N-terminus assumed
SMILES: CC[C@H](C)[C@H](NC(=O)[C@H](C)N)C(=O)N[C@H]1CSSC(C)(C)[C@@H](C(=O)N[C@H](C(=O)N2CCC[C@H]2C(=O)N[C@@H](CCC(=O)O)C(N)=O)[C@@H](C)CC)NC(=O)[C@H]([C@@H](C)CC)NC(=O)[C@@H]2C[C@@H]3CCCC[C@@H]3N2C(=O)[C@@H]2CCCN2C(=O)[C@H](CC(C)C)NC(=O)[C@H](CO)NC(=O)[C@H](CCCNC(=N)N)NC(=O)[C@H](CO)NC1=O
B8: AIC+SRS-((tBu)A)-PP-((2S)-2-(Amino)-2-[(1S,3R)-3-hydroxycyclohexyl]acetic acid)-((N-Me)C)+IPD-NH2 (peptide)
peptide: AICSRS[tBuAla]PP[(2S)‑2‑(Amino)‑2‑((1S,3R)-3-hydroxycyclohexyl)acetic acid][NMeC]IPD-NH2
modifications: disulfide 3-11
B9: AIC+SRS-((t-Bu)A)-PPIC+ID-OH (peptide)
peptide: AICSRS[tBuAla]PPICID-OH
modifications: disulfide 3-11; N-terminus assumed
SMILES: CC[C@H](C)[C@H](NC(=O)[C@H](C)N)C(=O)N[C@H]1CSSC[C@@H](C(=O)N[C@H](C(=O)N[C@@H](CC(=O)O)C(=O)O)[C@@H](C)CC)NC(=O)[C@H]([C@@H](C)CC)NC(=O)[C@@H]2CCCN2C(=O)[C@@H]2CCCN2C(=O)[C@H](CC(C)(C)C)NC(=O)[C@H](CO)NC(=O)[C@H](CCCNC(=N)N)NC(=O)[C@H](CO)NC1=O
B10: AIC+SRSLP-(Oic)-I-(Pen)+IP-OH (peptide)
peptide: AICSRSLP[Oic]I[Pen]IP-OH
modifications: disulfide 3-11; N-terminus assumed
SMILES: CC[C@H](C)[C@H](NC(=O)[C@H](C)N)C(=O)N[C@H]1CSSC(C)(C)[C@@H](C(=O)N[C@H](C(=O)N2CCC[C@H]2C(=O)O)[C@@H](C)CC)NC(=O)[C@H]([C@@H](C)CC)NC(=O)[C@@H]2C[C@@H]3CCCC[C@@H]3N2C(=O)[C@@H]2CCCN2C(=O)[C@H](CC(C)C)NC(=O)[C@H](CO)NC(=O)[C@H](CCCNC(=N)N)NC(=O)[C@H](CO)NC1=O
B11: AIC+SRSLP-(Oic)-I-(Pen)+I-OH (peptide)
peptide: AICSRSLP[Oic]I[Pen]I-OH
modifications: disulfide 3-11; N-terminus assumed
SMILES: CC[C@H](C)[C@H](NC(=O)[C@H]1NC(=O)[C@H]([C@@H](C)CC)NC(=O)[C@@H]2C[C@@H]3CCCC[C@@H]3N2C(=O)[C@@H]2CCCN2C(=O)[C@H](CC(C)C)NC(=O)[C@H](CO)NC(=O)[C@H](CCCNC(=N)N)NC(=O)[C@H](CO)NC(=O)[C@@H](NC(=O)[C@@H](NC(=O)[C@H](C)N)[C@@H](C)CC)CSSC1(C)C)C(=O)O
B12: AIC+SRSLP-(Oic)-I-(Pen)+IPE-OH (peptide)
peptide: AICSRSLP[Oic]I[Pen]IPE-OH
modifications: disulfide 3-11; N-terminus assumed
SMILES: CC[C@H](C)[C@H](NC(=O)[C@H](C)N)C(=O)N[C@H]1CSSC(C)(C)[C@@H](C(=O)N[C@H](C(=O)N2CCC[C@H]2C(=O)N[C@@H](CCC(=O)O)C(=O)O)[C@@H](C)CC)NC(=O)[C@H]([C@@H](C)CC)NC(=O)[C@@H]2C[C@@H]3CCCC[C@@H]3N2C(=O)[C@@H]2CCCN2C(=O)[C@H](CC(C)C)NC(=O)[C@H](CO)NC(=O)[C@H](CCCNC(=N)N)NC(=O)[C@H](CO)NC1=O

target: T1, recombinant human MASP1 active protease …; assay: cell-based or functional assay

human MASP1 IC50 [nM] | Binder
3 | B1
2.9 | B2
3.1 | B3
2.9 | B4
1.19 | B5
3.2 | B6
3.1 | B7
3 | B8
3.1 | B9
2.9 | B10
3 | B11
2.9 | B12

target: recombinant human MASP2 active protease (amino acids 297-686, C-terminal His Tag) (human, UniProt O00187 297-686); assay: cell-based or functional assay
Sequence (O00187 other isoform, or with tags, fused parts or gaps limits assumed): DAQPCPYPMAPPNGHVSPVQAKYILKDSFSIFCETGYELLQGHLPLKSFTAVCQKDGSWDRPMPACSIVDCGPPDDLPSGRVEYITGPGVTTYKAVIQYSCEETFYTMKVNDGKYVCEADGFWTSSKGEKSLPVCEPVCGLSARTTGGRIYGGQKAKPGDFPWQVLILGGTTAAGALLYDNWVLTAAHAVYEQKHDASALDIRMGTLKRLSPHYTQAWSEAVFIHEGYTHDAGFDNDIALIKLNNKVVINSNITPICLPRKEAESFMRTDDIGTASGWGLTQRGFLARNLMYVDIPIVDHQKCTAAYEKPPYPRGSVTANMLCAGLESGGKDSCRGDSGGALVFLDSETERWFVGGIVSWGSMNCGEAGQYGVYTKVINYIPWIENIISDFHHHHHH

human MASP2 IC50 [nM] | Binder
140 | B1
89 | B2
590 | B3
200 | B4
36 | B5
75 | B6
160 | B7
330 | B8
83 | B9
160 | B10
360 | B11
130 | B12
